The text below walks through data of patent publication US20110053841A1.

Where only a bound is given, the exact number is not on record here.

For the assay, the target named is FGFR3. As to the kind of experiment: cell-based or functional assay.

Turning to “FGF4^Δ78 (from UniProt P08620 79-206) (ligand)”, the concentration inducing a growth response of FDCP-FGFR3 cells (XTT) is > 25 ng/mL.
Consider “FGF4^Δ54N165R (from UniProt P08620 55-206) (ligand)”, for which the concentration at which FDCP-FGFR3 cells proliferate (XTT) was > 0.1 ng/mL.
